Data: patent publication US20230390371A1, “ANTI-TUMOR IMMUNITY INDUCES THE PRESENTATION OF ABERRANT PEPTIDES” (STICHTING HET NEDERLANDS KANKER INSTITUUT-ANTONI VAN …, priority 2020, published 2023)

Test system: A375 cells expressing H2-Kb
Assay: H2-Kb-bound SIINFEKL presentation from V5-ATF4(1-63)-tGFP-SIINFEKL reporters
Type: cell-based, human
Settings: IFNγ treatment
Source text: FIG. 4: Aberrant frameshifted peptides are detected in full proteomes, are presented on HLA class I molecules, and induce peptide-specific T cell response. • (a) Gene set enrichment analysis (GSEA) based depiction of the proteomics data showing the induction of the IFN response and HLA genes following IFN treatment of MD55A3 cells. (b) A volcano plot showing differentially identified proteins as detected by 2D LC-MS/MS on lysates of MD55A3 cells expressing the V5-ATF4(1-63)-tGFP +1 out-of-frame construct. The red arrowhead indicates a peptide identified in the full proteome that corresponds to tGFP that could only have arisen from a frameshifting event. (c) Same analysis as panel b, but for the tryptophan-associated aberrant peptides identified to be reproducibly present in either IFNγ-treated or control conditions. […] (d) Bar graph depicting the median fluorescence intensity (MFI) of H2-Kb-bound SIINFEKL peptides in A375 cells expressing H2-Kb in combination with in-frame (Frame) or +1 out-of-frame (+1) V5-ATF4(1-63)-tGFP-SIINFEKL reporters. […] The panel presents 12 frameshifted peptides detected in the immuno-peptidomics mass spectrometry data of IFNγ and tryptophan deprived (mTRP) samples, which were not detected in the untreated controls. A subset of these were also detected in the fresh tumor metastases (mets) samples of the same patient (MD55). […]

B1: IFNγ: interferon gamma (PeproTech), used at 250 U/mL (protein, UniProt P01579 24-161, looked up)
Interferon gamma: QDPYVKEAENLKKYFNAGHSDVADNGTLFLGILKNWKEESDRKIMQSQIVSFYFKLFKNFKDDQSIQKSVETIKEDMNVKFFNSNKKKRDDFEKLTNYSVTDLNVQRKAIHELIQVMAELSPAAKTGKRKRSQMLFRG
presentation of +1 out-of-frame SIINFEKL peptide (+1 out-of-frame reporter, IDO1-dependent): strongly stimulated
presentation of in-frame SIINFEKL peptide (in-frame reporter, IDO1-independent): mildly induced
